According to article PMC5067070:

Target: Xenopus laevis ERCC1 (Xenopus laevis (endogenous in egg extract))
Assay: immunodepletion

percent of SLX4 co-depleted: 90%
Substance: Xenopus laevis SLX4 (natural protein)
